According to patent US11499162B2, “Plants having increased tolerance to herbicides” (BASF SE, priority 2016, dated 2022):
Positions count from the first letter of the chain named. Numbers in names are those of the source.

B1: Q71NL92AM155TF157L: mutated TriA variant of SEQ ID NO: 2 (protein)
chain: MQTLSIQHGTLVTMDQYRRVLGDSWVHVQDGRIVALGVHAESVPPPADRVIDARGKVVLPGFINAHTHVNNILLRGGPSHGRQLYDWLFNVAYPGQKAMRPEDVAVAVRLYCAEAVRSGITTINDNADSAIYPGNIEAAMAVYGEVGVRVVYARTFLDRMDGRIQGYVDALKARSPQVELCSIMEETAVAKDRITALSDQYHGTAGGRISVWPAPAITPAVTVEGMRWAQAFARDRAVMWTLHMAESDHDERLHWMSPAEYMECYGLLDERLQVAHCVYFDRKDVRLLHRHNVKVASQVVSNAYLGSGVAPVPEMVERGMAVGIGTDDGNCNDSVNMIGDMKFMAHIHRAVHRDADVLTPEKILEMATIDGARSLGMDHEIGSIETGKRADLILLDLRHPQTTPHHHLAATIVFQAYGNEVDTVLIDGNVVMENRRLSFLPPERELAFLEEAQSRATAILQRANMVANPAWRSL
modifications: Pseudomonas
B2: Y93A: mutated TriA variant of SEQ ID NO: 2 (protein)
chain: B1 chain with N71Q, A92L, Y93A, T155M, L157F
modifications: Pseudomonas
B3: F89A: mutated TriA variant of SEQ ID NO: 2 (protein)
chain: B1 chain with N71Q, F89A, A92L, T155M, L157F
modifications: Pseudomonas
B4: D328A: mutated TriA variant of SEQ ID NO: 2 (protein)
chain: B1 chain with N71Q, A92L, T155M, L157F, D328A
modifications: Pseudomonas
B5: M160G: mutated TriA variant of SEQ ID NO: 2 (protein)
chain: B1 chain with N71Q, A92L, T155M, L157F, M160G
modifications: Pseudomonas
B6: Y85LF89AL92AY93L: mutated TriA variant of SEQ ID NO: 2 (protein)
chain: B1 chain with N71Q, Y85L, F89A, Y93L, T155M, L157F
modifications: Pseudomonas
B7: L88AL92AY93L: mutated TriA variant of SEQ ID NO: 2 (protein)
chain: B1 chain with N71Q, L88A, Y93L, T155M, L157F
modifications: Pseudomonas
B8: N70VQ71V: mutated TriA variant of SEQ ID NO: 2 (protein)
chain: B1 chain with N70V, N71V, A92L, T155M, L157F
modifications: Pseudomonas
B9: L92AY93A: mutated TriA variant of SEQ ID NO: 2 (protein)
chain: B1 chain with N71Q, Y93A, T155M, L157F
modifications: Pseudomonas
B10: Q71NL92AM155VF157L: mutated TriA variant of SEQ ID NO: 2 (protein)
chain: B1 chain with T155V
modifications: Pseudomonas
B11: Q71C: mutated TriA variant of SEQ ID NO: 2 (protein)
chain: B1 chain with N71C, A92L, T155M, L157F
modifications: Pseudomonas
B12: L92AY93L: mutated TriA variant of SEQ ID NO: 2 (protein)
chain: B1 chain with N71Q, Y93L, T155M, L157F
modifications: Pseudomonas
B13: L92AF89A: mutated TriA variant of SEQ ID NO: 2 (protein)
chain: B1 chain with N71Q, F89A, T155M, L157F
modifications: Pseudomonas
B14: Y85LL92AY93LD250S: mutated TriA variant of SEQ ID NO: 2 (protein)
chain: B1 chain with N71Q, Y85L, Y93L, T155M, L157F, D250S
modifications: Pseudomonas
B15: D328G: mutated TriA variant of SEQ ID NO: 2 (protein)
chain: B1 chain with N71Q, A92L, T155M, L157F, D328G
modifications: Pseudomonas
B16: Y85LL92AY93LD128AD250S: mutated TriA variant of SEQ ID NO: 2 (protein)
chain: B1 chain with N71Q, Y85L, Y93L, D128A, T155M, L157F, D250S
modifications: Pseudomonas
B17: L92AY93LD250S: mutated TriA variant of SEQ ID NO: 2 (protein)
chain: B1 chain with N71Q, Y93L, T155M, L157F, D250S
modifications: Pseudomonas
B18: Y93L: mutated TriA variant of SEQ ID NO: 2 (protein)
chain: B1 chain with N71Q, A92L, Y93L, T155M, L157F
modifications: Pseudomonas
B19: F89LL92AY93L: mutated TriA variant of SEQ ID NO: 2 (protein)
chain: B1 chain with N71Q, F89L, Y93L, T155M, L157F
modifications: Pseudomonas
B20: Q71NL92AD328G: mutated TriA variant of SEQ ID NO: 2 (protein)
chain: B1 chain with T155M, L157F, D328G
modifications: Pseudomonas
B21: L92AY93F: mutated TriA variant of SEQ ID NO: 2 (protein)
chain: B1 chain with N71Q, Y93F, T155M, L157F
modifications: Pseudomonas
B22: L92AF89AY93A: mutated TriA variant of SEQ ID NO: 2 (protein)
chain: B1 chain with N71Q, F89A, Y93A, T155M, L157F
modifications: Pseudomonas
B23: Y93V: mutated TriA variant of SEQ ID NO: 2 (protein)
chain: B1 chain with N71Q, A92L, Y93V, T155M, L157F
modifications: Pseudomonas
B24: Y85LL92AY93V: mutated TriA variant of SEQ ID NO: 2 (protein)
chain: B1 chain with N71Q, Y85L, Y93V, T155M, L157F
modifications: Pseudomonas
B25: Q71NL92AM155TF157V: mutated TriA variant of SEQ ID NO: 2 (protein)
chain: B1 chain with L157V
modifications: Pseudomonas
B26: Y93F: mutated TriA variant of SEQ ID NO: 2 (protein)
chain: B1 chain with N71Q, A92L, Y93F, T155M, L157F
modifications: Pseudomonas
B27: D250S: mutated TriA variant of SEQ ID NO: 2 (protein)
chain: B1 chain with N71Q, A92L, T155M, L157F, D250S
modifications: Pseudomonas
B28: N70VQ71T: mutated TriA variant of SEQ ID NO: 2 (protein)
chain: B1 chain with N70V, N71T, A92L, T155M, L157F
modifications: Pseudomonas
B29: F89AL92AY93L: mutated TriA variant of SEQ ID NO: 2 (protein)
chain: B1 chain with N71Q, F89A, Y93L, T155M, L157F
modifications: Pseudomonas

Format: biochemical
Details: pH 7.2
Outline: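 TriA variants, N-His-tagged, were expressed in E. coli BL21(DE3) Gold with groEL/groES chaperones and purified by Ni-IDA affinity. Enzyme in 25 mM sodium phosphate pH 7.2 was incubated with azine substrates at 1 nM to 10 nM, 30° C. Products were identified by UPLC-HR-MS.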

Molecule	Degradation in % of 6-cyclopentyl-N4-(2,3,4,5,6-pentafluorophenyl)-1,3,5-triazine-2,4-diamine [%]	Degradation in % of Melamine [%]
B1	98	44
B2	66	100
B3	26	100
B4	95	5
B5	29	100
B6	15	0
B7	35	0
B8	0	0
B9	56	1
B10	100	67
B11	0	5
B12	99	100
B13	100	100
B14	36	0
B15	19	0
B16	9	0
B17	99	0
B18	82	100
B19	35	0
B20	6	0
B21	100	100
B22	100	63
B23	98	100
B24	24	0
B25	99	52
B26	33	98
B27	16	0
B28	0	0
B29	99	7
